# According to the DeepSol protein solubility set:
# Assay: soluble on expression in E. coli; label from the status in PepcDB or PDB records
row,Sequence,soluble on expression in E. coli
1,MGSDKIHHHHHHMNNNIPLRALQIFEACARLESCSLAANELCITQSAVSQQIKQLEDYFLEKLFYRQGGKINLTEAGIELRERLAPVFYDLNSVCSSLVQNMAGEVRVHSYTSLAARWLVPKMEQLRQMYPELNINVGMFQNDIEMSDMIADIFIVTRECQDGYTIIPLVTEKLVAFCSPDYLAQSQGISLATLDQHCLLYSKHKDYGVDWDTWFRNNDIAISPNQKKIFFNHNMLAVQAAIYGQGIVLGLEQTLKVELDSGNLVKLDLPTCLSGLTYYIAYKTSKKRDARIMRIVDWIIDNYPGDHPGDRTLAR,not soluble
2,GSRNHCPHLDSVGEITKEDLIQKSLGTCQDCKVQGPNLWACLENRCSYVGCGESQVDHSTIHSQETKHYLTVNLTTLRVWCYACSKEVFLDRKLGTQ,soluble
3,MRGSHHHHHHTDPALRASKVTPQPKIGFVSLGCPKNLVDSERILTELRTEGYDVVPSYDDADMVIVNTCGFIDSAVQESLEAIGEALNENGKVIVTGCLGAKEDQIREVHPKVLEITGPHSYEQVLEHVHHYVPKPKHNPFLSLVPEQGVKLTPRHYAYLKISEGCNHRCTFCIIPSMRGDLVSRPIGEVLSEAKRLVDAGVKEILVISQDTSAYGVDVKHRTGFHNGEPVKTSMVSLCEQLSKLGIWTRLHYVYPYPHVDDVIPLMAEGKILPYLDIPLQHASPRILKLMKRPGSVDRQLARIKQWREICPELTLRSTFIVGFPGETEEDFQMLLDFLKEARLDRVGCFKYSPVEGADANALPDQVPEEVKEERWNRFMQLQQQISAERLQEKVGREILVIIDEVDEEGAIGRSMADAPEIDGAVYLNGETNVKPGDILRVKVEHADEYDLWGSRVGLCGR,soluble
4,MSDGSDDDTNNDGNYCKNVSYNFLIQRLAEVSNRKCLLLPKKKNRVDYISIMQTAEFYPELVNSSPPLEPGFTSCEVFVVDKKVDKDTLHLDNFSPYHIGATRRTLERQHSYFYRVNESGNFVPAIKTNGTHILRILVSILGSCPALNRKIYRMVKIESQNKNCLPSLIVYTFEPGHEIPKPNAPAILRRQTSDEIQKILNIPGTSFSQAHSEAVLNRFYDDLPIRDEASDQKRARYSIESTSSTNNQLNEINSFVVPKFEGRQESEQLFRDVKVEQFEESAEISINNRALSPHIQPSKTSVVNRPNQQNRKFQNYDMFSAGVISTATVPAPMFHPHITPIADLKDDDGYDPEELTQRNKLASLYRLVDLFRWSQGIYNHITVRVSTDPDEILINAFGQLYSEVSASSLIKVDLDGTVIDGGSTNFGVNQAGYVLHSAIHNGRPEVKCVVHLHHPSVVAVSAQKCGLLPISQESMIVGDVGYHEYRGILIDEAERALLVRDLGDRNVMILRNHGFVVCGESIEHALSLTYHLIIACETQIRTVPGGNTDNVHFPAQSAIKQVYKVASQGGGGVNRQNGHVNSMQWKKGELEWQAYMRQLDAQGYVTGNVPN,not soluble
5,NIILQEDNAQLDEVVVVGYGTMKKKDLTGSVTAVKGDELAARRTTQLSTALQGALSGVMVSRDNGAPGSSASIQIRGVTTIGDSSPLVIIDGIPGDINSVNPEDVESMSVLKDAASASIYGSRAAAGVIVITTKRAKSGD,not soluble
6,MADLLDKIMGSSSSNRIPKRDNRMNQDKDEPTSKRSAPMFSTPKSTTPIGRDSFATMDTMNVQMNMFPVDIKDMPHKIQRFQVDVIVCSSNGKQINANLGVLAAKGDVNSHNRRLAQYYIMRTVHDKLLVKFSGKSHHFLAYDCAATLYLPEGVYTGDDQEEVTLTIDDFPKEEWKFVSKLSRRKDDSYLVVLKPAGFVYTQGEVAQEEANRMELTRIIEIVTSQKLNNEDYLQFGNATFPRLSPPHSEPDAISEIRSGFAKVSRLSQNGGGKAFMTVDTKISPFYKDTSVIKFSSNKLSEMKGGGGGRGGYGRSDSRDSRGGYRGGRSDSRDFRGVYGNRGGNDRYRDESRGRRDMYDSRRDSGSSNGADYSPSDAAELEHAFGERGNTKRCIEEALKGLDVECTHLKGNLIRVSSIAENNAENTSFMMKDDKGEREVTVAEYFLLQYNIKLKYPRLPLVVSKRFKHESFFPMELLRIAPGQRIKVNKMSPTVQSAMTGRNASMPQHHVKLVQDILRDNLKLEQNKYMDAFGIKLMSTEPIQMTAKLLPPAQIKFKGQTYMPDMSRPAFRTQDKFVEPARIRKIGIVVFDNCIQMRQAEDFCDKLSNFCRDNGITVEKDSRDWSIRELNSSDSVAIQNLMKKWLDDRVDILVGIAREKKPDVHDILKYFEESIGLQTIQLCQQTVDKMMGGQGGRQTIDNVMRKFNLKCGGTNFFVEIPNAVRGKAVCSNNETLRKKLLEHVQFIGFEISHGASRTLFDRSRSQMDGEPSVVGVSYSLTNSTQLGGFTYLQTQKEYKLQKLDEFFPKCVRSYKEHSKTLPTRIVIYRVGAGEGNFNRVKEEVEEMRRTFDKIQPGYRPHLVVIIAQRASHARVFPSCISGNRATDQNIPSGTCVENVLTSYGYDEFILSSQTPLIGTVRPCKYTILVNDAKWSKNELMHLTYFRAFGHQVSYQPPSVPDVLYAAENLAKRGRNNYKIHQRYVNLQAVENRIIKDHSELINEDMREELAAAIVDEMSVAMNGMTIPKRNFWA,not soluble
7,MGSDKIHHHHHHMFVIWSHRTGFIMSHQLTFADSEFSSKRRQTRKEIFLSRMEQILPWQNMVEVIEPFYPKAGNGRRPYPLETMLRIHCMQHWYNLSDGAMEDALYEIASMRLFARLSLDSALPDRTTIMNFRHLLEQHQLARQLFKTINRWLAEAGVMMTQGTLVDATIIEAPSSTKNKEQQRDPEMHQTKKGNQWHFGMKAHIGVDAKSGLTHSLVTTAANEHDLNQLGNLLHGEEQFVSADAGYQGAPQREELAEVDVDWLIAERPGKVRTLKQHPRKNKTAINIEYMKASIRARVEHPFRIIKRQFGFVKARYKGLLKNDNQLAMLFTLANLFRADQMIRQWERSH,not soluble
8,MLKINVKYQLKNTLIRINIDDTEPKIYAVRGPSGIGKTTVLNMIAGLRKADEAIIEVNGQLLTDTAKNVNVKIQQRRIGYLFQDYQLFPNMTVYKNITFMAEPSEHIDQLIQTLNIDHLMKQYPMTLSGGEAQRVALARALSTKPDLILLDEPFSSLDDTTKDESITLVKRIFNEWQIPIIFVTHSNYEAEQMAHEIITIG,not soluble
9,SLYENDYVKKTQVWPSGGQMTVKNLSANYIDGGNTVLENISFSLSPGQRVGLLGRTGSGKSTLLSAFLRLLSTQGDIQIDGVSWQTIPLEKWRKAFGVIPQKVFIFSGSIRKNLDPYGKWSDEELLKVTEEVGLKLIIDQFPGQLDFVLLDGGCVLSHGHKQLVCLARSVLSKAKILLLDEPSAHLDPITFQIIRKTLKHAFADCTVILSEARLEAMLECDRFLVIEDNTVRQYDSIQKLVNEKSDFKQAISHSD,soluble
10,MELRIGFGFDSHEFVEGKLLILGGVEIEKDYGLKGHSDGDALLHAITDAILGALGERDIGEIFKDTDPRWKNAPSRIFLEKALEVMSEKGFNISNIDCVIVADRPKIAPHKERIKESLSKLLGIPKERISLKGKRREGFCEGNGLVCMCTVLLVKMLEHHHHHH,soluble
11,MGSDKIHHHHHHMKKTSFIYLLLLIALGLSSCQQEKTFKVLQFNIWQEGAVVKGGFDAIADEIVRSNADFVTLSEVRNYHQTRFCDRIVEALQQRGQTYYSFYTEDSGLLSRYPITDSTTVYPLNDDRGSMYKAITHIGDTEVALYTAHLDYRNCAYYDARGYDGNTWDEEPPVTNLDTLLWLNEQSVRDDAIACFLKEAKKDREAGRIVILGGDFNEPSHLDWTEATKDMRDHQGLVVPWHVSVMLEKDGFKDTYREIFPNPVTHPGLTCPADCKDIALEKLVWSPKADDRDRIDFIHYAPFEGLTLTDVCIIGPKGDILRGQRETEETSDPIMTPLGIWPTDHKAVLATFHLK,not soluble
12,MSLARLKVKVWGEYACFSRPEFKVERVSYPVPTPSAARGLLEAIFWKPEFRYEVRRIGVLRLGTPFALLRNEVGNRMGAKPFFVEDARQQRTSLVLKDVAYLVEADMVLRPHATDPLPKYLEQFERRLKKGQYHHTPYLGTREFPAYFSPPDGEVPDGGLNLDLGPMLFDLAFVEDPGRPELTFKRPGRGEVQGYALPLFFHARIREGWLEVPAEKYQELYRLEEGHAKGAEGHHHHHH,soluble
13,SLSIDEIKQLIELIDESTLDEFELETKDSKILLKKHKTVVATAVQEAPIAVTPAQTAPVTPAAAPQVEASTAEDVNLEVITSPMVGTFYASASPEDANFVSVGSKVSAQSVVCIVEAMKLFNEITADIDGEIAEILVSSGELVEFGQPLFKVRKK,soluble
